Results: the supplement of paper PMC9112550, “Optimization of the antimicrobial peptide Bac7 by deep mutational scanning” (BMC Biology, 2022)

Tested on: Escherichia coli TOP10
Test: shrunken log2 fold change of peptide-encoding DNA abundance (4.5 h post-induction vs induction); higher = less antimicrobial activity (less host growth inhibition)
Conditions: time post-induction: 4.5 h; library: site-saturation at positions 5, 18, 19, 20
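Also: peptides expressed intracellularly from a pBAD plasmid library in pooled LB shake-flask culture, induced with 0.3% L-arabinose, DNA abundance read by NGS, three biological replicates, DESeq2 with apeglm shrinkage.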

| Sequence | shrunken log2 fold change |
| --- | --- |
| RRIRERPPRLPRPRPRPMNYPRP | -0.981 |
| RRIRFRPPRLPRPRPRPIMEPRP | -0.319 |
| RRIRIRPPRLPRPRPRPWRVPRP | -0.0531 |
| RRIRSRPPRLPRPRPRPEGNPRP | -0.0126 |
| RRIRKRPPRLPRPRPRPDTEPRP | 1.13 |
| RRIRKRPPRLPRPRPRPYYRPRP | -0.827 |
| RRIRERPPRLPRPRPRPLYFPRP | -0.764 |
| RRIRARPPRLPRPRPRPCHVPRP | -0.0999 |
| RRIRARPPRLPRPRPRPMARPRP | -0.132 |
| RRIRWRPPRLPRPRPRPVGGPRP | 0.494 |
| RRIRFRPPRLPRPRPRPHATPRP | -0.0624 |
| RRIRYRPPRLPRPRPRPYHWPRP | -0.115 |
| RRIRNRPPRLPRPRPRPQWYPRP | -0.209 |
| RRIRHRPPRLPRPRPRPMWEPRP | -0.0441 |
| RRIRLRPPRLPRPRPRPFCDPRP | -0.366 |
| RRIRGRPPRLPRPRPRPKEDPRP | 0.796 |
| RRIRRRPPRLPRPRPRPFFQPRP | -0.111 |
| RRIRVRPPRLPRPRPRPYWTPRP | -0.366 |
| RRIRGRPPRLPRPRPRPFEAPRP | 0.727 |
| RRIRLRPPRLPRPRPRPRQWPRP | 0.223 |
| RRIRARPPRLPRPRPRPKCSPRP | 0.0215 |
| RRIRDRPPRLPRPRPRPQFSPRP | 0.0361 |
| RRIRPRPPRLPRPRPRPTPMPRP | 0.208 |
| RRIRNRPPRLPRPRPRPKNPPRP | 0.0494 |
| RRIRKRPPRLPRPRPRPFFIPRP | -0.061 |

| Sequence | shrunken log2 fold change |
| --- | --- |
| RRIRGRPPRLPRPRPRPAPWPRP | 0.891 |
| RRIRERPPRLPRPRPRPGPFPRP | -0.128 |
| RRIRARPPRLPRPRPRPYACPRP | -0.217 |
| RRIRRRPPRLPRPRPRPCECPRP | 0.076 |
| RRIRQRPPRLPRPRPRPWCMPRP | -0.342 |
| RRIRARPPRLPRPRPRPAFVPRP | 0.315 |
| RRIRKRPPRLPRPRPRPRQKPRP | -0.0264 |
| RRIRCRPPRLPRPRPRPEMQPRP | 0.526 |
| RRIRQRPPRLPRPRPRPNIFPRP | -0.496 |
| RRIRHRPPRLPRPRPRPIVHPRP | -0.125 |
| RRIRWRPPRLPRPRPRPMRPPRP | 1.15 |
| RRIRERPPRLPRPRPRPFDSPRP | -1.81 |
| RRIRVRPPRLPRPRPRPDMMPRP | 0.0644 |
| RRIRHRPPRLPRPRPRPLLLPRP | -0.208 |
| RRIRKRPPRLPRPRPRPQCGPRP | 0.0718 |
| RRIRQRPPRLPRPRPRPEHFPRP | 0.0746 |
| RRIRSRPPRLPRPRPRPWGTPRP | -0.222 |
| RRIRDRPPRLPRPRPRPRTDPRP | 0.0936 |
| RRIRHRPPRLPRPRPRPFTVPRP | -0.0532 |
| RRIRWRPPRLPRPRPRPRSAPRP | 0.294 |
| RRIRIRPPRLPRPRPRPWYYPRP | -0.00149 |
| RRIRYRPPRLPRPRPRPDIPPRP | -0.119 |
| RRIRSRPPRLPRPRPRPPVEPRP | -0.0919 |
| RRIRVRPPRLPRPRPRPQFGPRP | -0.018 |
| RRIRIRPPRLPRPRPRPWTQPRP | 0.0826 |

| Sequence | shrunken log2 fold change |
| --- | --- |
| RRIRNRPPRLPRPRPRPKWRPRP | 0.792 |
| RRIRSRPPRLPRPRPRPTGVPRP | 0.0241 |
| RRIRLRPPRLPRPRPRPTWPPRP | 0.705 |
| RRIRLRPPRLPRPRPRPKQNPRP | 0.2 |
| RRIRMRPPRLPRPRPRPERHPRP | 0.764 |
| RRIRWRPPRLPRPRPRPRNIPRP | 0.00817 |
| RRIRCRPPRLPRPRPRPEPRPRP | 0.61 |
| RRIRGRPPRLPRPRPRPLAGPRP | 0.887 |
| RRIRPRPPRLPRPRPRPRDFPRP | 0.317 |
| RRIRIRPPRLPRPRPRPCHQPRP | -0.245 |
| RRIRGRPPRLPRPRPRPDSGPRP | 0.128 |
| RRIRMRPPRLPRPRPRPFFIPRP | -0.247 |
| RRIRCRPPRLPRPRPRPFVFPRP | -0.26 |
| RRIRTRPPRLPRPRPRPPPAPRP | 0.746 |
| RRIRCRPPRLPRPRPRPQNNPRP | -0.526 |
| RRIRTRPPRLPRPRPRPQAKPRP | -0.147 |
| RRIRNRPPRLPRPRPRPHCQPRP | -0.861 |
| RRIRQRPPRLPRPRPRPRKAPRP | -0.0029 |
| RRIRERPPRLPRPRPRPPGKPRP | 0.28 |
| RRIRGRPPRLPRPRPRPLDNPRP | 0.244 |
| RRIRRRPPRLPRPRPRPAREPRP | 0.925 |
| RRIRTRPPRLPRPRPRPYEPPRP | -0.18 |
| RRIRFRPPRLPRPRPRPANGPRP | 0.0551 |
| RRIRIRPPRLPRPRPRPQEFPRP | 0.0204 |
| RRIRIRPPRLPRPRPRPHVEPRP | -0.227 |

| Sequence | shrunken log2 fold change |
| --- | --- |
| RRIRIRPPRLPRPRPRPSIVPRP | -0.477 |
| RRIRNRPPRLPRPRPRPSAWPRP | -0.135 |
| RRIRSRPPRLPRPRPRPGRIPRP | -0.0494 |
| RRIRKRPPRLPRPRPRPVARPRP | 0.397 |
| RRIRARPPRLPRPRPRPHMHPRP | -0.152 |
| RRIRDRPPRLPRPRPRPTPQPRP | 0.0786 |
| RRIRHRPPRLPRPRPRPDWCPRP | -0.00101 |
| RRIRDRPPRLPRPRPRPHNQPRP | -0.398 |
| RRIRGRPPRLPRPRPRPKQDPRP | 0.881 |
| RRIRHRPPRLPRPRPRPLIGPRP | -0.155 |
| RRIRFRPPRLPRPRPRPSGNPRP | -0.24 |
| RRIRYRPPRLPRPRPRPIYGPRP | -0.428 |
| RRIRNRPPRLPRPRPRPTIYPRP | -0.106 |
| RRIRVRPPRLPRPRPRPTGTPRP | 0.699 |
| RRIRMRPPRLPRPRPRPRSEPRP | 0.81 |
| RRIRKRPPRLPRPRPRPNFEPRP | 0.0868 |
| RRIRARPPRLPRPRPRPDEPPRP | 0.0489 |
| RRIRCRPPRLPRPRPRPTTCPRP | -0.293 |
| RRIRRRPPRLPRPRPRPNVNPRP | -0.0627 |
| RRIRPRPPRLPRPRPRPPLNPRP | 0.275 |
| RRIRIRPPRLPRPRPRPAHLPRP | 0.117 |
| RRIRVRPPRLPRPRPRPERVPRP | -0.107 |
| RRIRQRPPRLPRPRPRPVIPPRP | -1.12 |
| RRIRLRPPRLPRPRPRPIQSPRP | -0.0832 |
| RRIRVRPPRLPRPRPRPYQKPRP | -0.0384 |

| Sequence | shrunken log2 fold change |
| --- | --- |
| RRIRHRPPRLPRPRPRPTNYPRP | -0.2 |
| RRIRMRPPRLPRPRPRPFGCPRP | 0.254 |
| RRIRARPPRLPRPRPRPELDPRP | 1.78 |
| RRIRTRPPRLPRPRPRPGSCPRP | 0.083 |
| RRIRDRPPRLPRPRPRPLYSPRP | -0.411 |
| RRIRWRPPRLPRPRPRPGVHPRP | 0.135 |
| RRIRVRPPRLPRPRPRPVKGPRP | -0.0226 |
| RRIRIRPPRLPRPRPRPTYIPRP | -1.29 |
| RRIRARPPRLPRPRPRPAQFPRP | 0.509 |
| RRIRVRPPRLPRPRPRPEGQPRP | 0.197 |
| RRIRWRPPRLPRPRPRPCTVPRP | -0.438 |
| RRIRVRPPRLPRPRPRPVCHPRP | -0.29 |
| RRIRVRPPRLPRPRPRPNALPRP | -0.379 |
| RRIRPRPPRLPRPRPRPFHRPRP | -0.0334 |
| RRIRVRPPRLPRPRPRPDKIPRP | -0.19 |
| RRIRNRPPRLPRPRPRPNKRPRP | -0.221 |
| RRIRHRPPRLPRPRPRPWYRPRP | -0.0954 |
| RRIRVRPPRLPRPRPRPQQDPRP | 0.151 |
| RRIRLRPPRLPRPRPRPNMQPRP | -0.171 |
| RRIRERPPRLPRPRPRPYHVPRP | 0.0464 |
| RRIRDRPPRLPRPRPRPSMVPRP | -0.24 |
| RRIRYRPPRLPRPRPRPPYAPRP | -0.265 |
| RRIRLRPPRLPRPRPRPYNDPRP | -0.0858 |
| RRIRYRPPRLPRPRPRPCEPPRP | 0.0986 |
| RRIRQRPPRLPRPRPRPRRPPRP | 0.472 |

| Sequence | shrunken log2 fold change |
| --- | --- |
| RRIRYRPPRLPRPRPRPHSAPRP | -0.121 |
| RRIRNRPPRLPRPRPRPCQIPRP | -0.0177 |
| RRIRARPPRLPRPRPRPKPAPRP | 0.711 |
| RRIRTRPPRLPRPRPRPENDPRP | -0.0847 |
| RRIRQRPPRLPRPRPRPLRQPRP | 0.0855 |
| RRIRFRPPRLPRPRPRPWCNPRP | -0.267 |
| RRIRLRPPRLPRPRPRPASNPRP | -0.124 |
| RRIRGRPPRLPRPRPRPHGQPRP | 0.578 |
| RRIRGRPPRLPRPRPRPQRRPRP | 0.565 |
| RRIRSRPPRLPRPRPRPSMNPRP | -0.454 |
| RRIRARPPRLPRPRPRPHPHPRP | 0.322 |
| RRIRQRPPRLPRPRPRPEMNPRP | 0.0404 |
| RRIRFRPPRLPRPRPRPSAPPRP | -0.0675 |
| RRIRSRPPRLPRPRPRPFHMPRP | -0.365 |
| RRIRRRPPRLPRPRPRPCWEPRP | 0.109 |
| RRIRRRPPRLPRPRPRPTPPPRP | 0.845 |
| RRIRHRPPRLPRPRPRPMAFPRP | 0.166 |
| RRIRNRPPRLPRPRPRPHLPPRP | 0.0211 |
| RRIRYRPPRLPRPRPRPEWDPRP | -0.0176 |
| RRIRARPPRLPRPRPRPNDNPRP | -0.344 |
| RRIRPRPPRLPRPRPRPCDMPRP | -0.217 |
| RRIRKRPPRLPRPRPRPFTAPRP | -0.291 |
| RRIRERPPRLPRPRPRPICIPRP | -0.0731 |
| RRIRQRPPRLPRPRPRPEHNPRP | -0.137 |
| RRIRKRPPRLPRPRPRPQSGPRP | 0.149 |
